Data taken from article PMC12431856, “Synthetic ZFTA fusions pinpoint disordered protein domain acquisition as a mechanism of brain tumorigenesis”.

Target: ZFTA ZF1 (UniProt C9JLR9 81-172)
Assay: fluorescence polarization; FP: 25 mM citrate pH 5.6, 150 mM NaCl, 0.5 mM TCEP, 100 nM DNA, 15 nM-7.5 uM protein, 20 min, room temperature; NMR: same buffer with 5% D2O, 25 C
Settings: protein: recombinant; tags: none (His6-MBP removed by TEV); label: 5'-Cy5 on top strand; blunt

Chain of ZFTA ZF1 (C9JLR9 81-172): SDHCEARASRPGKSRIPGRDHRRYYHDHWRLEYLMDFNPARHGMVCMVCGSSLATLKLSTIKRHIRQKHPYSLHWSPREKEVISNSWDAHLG

B1: Cy5 PLAGL motif DNA (dsDNA)
DNA 1: GATCCATGGCCCCATGGATG
DNA 2: CATCCATGGGGCCATGGATC
binding result: binds
